Four molecules from patent publication US20250177432A1, “RNA MOLECULES AND COMPOSITIONS FOR CANCER IMMUNOTHERAPY” (WUHAN HOUXIAN BIOPHARMACEUTICAL CO. LTD., priority 2023, published 2025) can be followed below.

Entries after “also recorded” stand apart in the source; their conditions may differ.

Data set [1] can be described thus: Translation of codon optimized OX40L and IL-12 mRNA. Format: cell-based. As to conditions: FIG. 17. From the text:
Further, codon optimization was applied to the sequences of OX40L and IL-12 mRNA.

The next data set concerns CT26 tumor cells. Briefly: CT26 tumor model, IL-12/OX40L plus additional agent mRNA (Example 4). Format: in vivo, mice. The settings on record: 1.5 μg mRNA in total, days 9 and 12; for effect of adding the agent on the efficacy of the IL-12/OX40L combination: added agent fused to OX40L mRNA through IRES. As for the experimental part:
All of these agents were delivered, in various combinations, to the same animal model as used above, as mRNA (1.5 μg in total), on days 9 and 12, post-tumor cell implantation. While IL-12 and OX40L were encoded on different constructs, the added agent (e.g., FADD) was fused to the OX40L mRNA, through an IRES elements.
All the test agents were safe in the animals (FIG. 8).

B1: #8: codon-optimized OX40L mRNA, SEQ ID NO:29 (nucleic acid)
chain: AUGGAGAGGGUGCAGCCCCUGGAGGAGAACGUUGGCAACGCCGCGAGGCCCAGGUUCGAGCGCAACAAGCUCCUCCUGGUUGCCAGCGUGAUCCAGGGGCUGGGGCUGCUGUUGUGCUUUACAUACAUUUGUUUGCACUUCAGCGCCCUGCAGGUGUCACACAGGUACCCUCGUAUCCAGAGUAUUAAGGUGCAGUUCACCGAGUACAAGAAGGAGAAGGGCUUCAUCUUGACCUCCCAGAAGGAGGACGAGAUAAUGAAGGUCCAGAACAACUCCGUAAUCAUCAACUGUGACGGAUUUUACCUUAUCAGCUUGAAGGGGUACUUCUCCCAGGAGGUGAACAUCAGCCUCCACUACCAGAAGGACGAGGAGCCCCUUUUCCAGCUGAAGAAGGUGAGAUCCGUCAACAGUCUGAUGGUUGCGAGUCUGACCUACAAGGAUAAGGUGUACCUGAAUGUGACCACCGACAACACCUCUCUCGAUGACUUUCACGUGAACGGGGGCGAGCUGAUUCUGAUCCAUCAGAAUCCCGGCGAGUUCUGCGUUCUGUGA
On to B1, for which the translation level result in data set [1] was “relatively lower translation level”.

B2: MLKL: mRNA encoding MLKL (mixed lineage kinase domain like pseudokinase) or its four-helix bundle domain (nucleic acid)
chain: AUGGAAAAUUUGAAGCAUAUUAUCACCCUUGGCCAGGUCAUCCACAAACGGUGUGAAGAGAUGAAAUACUGCAAGAAACAGUGCCGGCGCCUGGGCCACCGCGUCCUCGGCCUGAUCAAGCCUCUGGAGAUGCUCCAGGACCAAGGAAAGAGGAGCGUGCCCUCUGAGAAGUUAACCACAGCCAUGAACCGCUUCAAGGCUGCCCUGGAGGAGGCUAAUGGGGAGAUAGAAAAGUUCAGCAAUAGAUCCAAUAUCUGCAGGUUUCUAACAGCAAGCCAGGACAAAAUACUCUUCAAGGACGUGAACAGGAAGCUGAGUGAUGUCUGGAAGGAGCUCUCGCUGUUACUUCAGGUUGAGCAACGCAUGCCUGUUUCACCCAUAAGCCAAGGAGCGUCCUGGGCACAGGAAGAUCAGCAGGAUGCAGACGAAGACAGGCGAGCUUUCCAGAUGCUAAGAAGAGAUAAUGAAAAAAUAGAAGCUUCACUGAGACGAUUAGAAAUCAACAUGAAAGAAAUCAAGGAAACUUUGAGGCAGUAUUUACCACCAAAAUGCAUGCAGGAGAUCCCGCAAGAGCAAAUCAAGGAGAUCAAGAAGGAGCAGCUUUCAGGAUCCCCGUGGAUUCUGCUAAGGGAAAAUGAAGUCAGCACACUUUAUAAAGGAGAAUACCACAGAGCUCCAGUGGCCAUAAAAGUAUUCAAAAAACUCCAGGCUGGCAGCAUUGCAAUAGUGAGGCAGACUUUCAAUAAGGAGAUCAAAACCAUGAAGAAAUUCGAAUCUCCCAACAUCCUGCGUAUAUUUGGGAUUUGCAUUGAUGAAACAGUGACUCCGCCUCAAUUCUCCAUUGUCAUGGAGUACUGUGAACUCGGGACCCUGAGGGAGCUGUUGGAUAGGGAAAAAGACCUCACACUUGGCAAGCGCAUGGUCCUAGUCCUGGGGGCAGCCCGAGGCCUAUACCGGCUACACCAUUCAGAAGCACCUGAACUCCACGGAAAAAUCAGAAGCUCAAACUUCCUGGUAACUCAAGGCUACCAAGUGAAGCUUGCAGGAUUUGAGUUGAGGAAAACACAGACUUCCAUGAGUUUGGGAACUACGAGAGAAAAGACAGACAGAGUCAAAUCUACAGCAUAUCUCUCACCUCAGGAACUGGAAGAUGUAUUUUAUCAAUAUGAUGUAAAGUCUGAAAUAUACAGCUUUGGAAUCGUCCUCUGGGAAAUCGCCACUGGAGAUAUCCCGUUUCAAGGCUGUAAUUCUGAGAAGAUCCGCAAGCUGGUGGCUGUGAAGCGGCAGCAGGAGCCACUGGGUGAAGACUGCCCUUCAGAGCUGCGGGAGAUCAUUGAUGAGUGCCGGGCCCAUGAUCCCUCUGUGCGGCCCUCUGUGGAUGAAAUCUUAAAGAAACUCUCCACCUUUUCUAAGUAG
As to B2, in the data set with CT26 tumor cells, the “anti-tumor effect of the added agent alone” value is reported as “did not have observable anti-tumor effects”; the “effect of adding the agent on the efficacy of the IL-12/OX40L combination” value is “further increased the efficacy of the IL-12/OX12L combination; also recorded: greater than by GSDMD and TNFR”.

B3: #10: codon-optimized OX40L mRNA, SEQ ID NO:31 (nucleic acid)
chain: AUGGAGCGGGUCCAGCCCCUGGAGGAGAACGUUGGCAACGCAGCGCGGCCCAGGUUCGAGAGGAACAAGCUGCUGCUGGUUGCCAGCGUGAUCCAGGGGCUGGGCCUGCUCCUGUGCUUCACCUACAUCUGCCUGCACUUCAGCGCACUGCAGGUGAGCCACAGGUAUCCCAGGAUACAGAGCAUCAAGGUGCAGUUCACCGAGUACAAGAAGGAGAAGGGCUUCAUCCUCACUUCCCAGAAGGAGGAUGAGAUCAUGAAGGUGCAGAACAACAGCGUGAUCAUCAACUGUGACGGCUUCUACCUGAUCAGCCUGAAGGGGUACUUCAGCCAGGAGGUGAACAUCAGCCUCCACUACCAGAAGGAUGAGGAGCCCCUGUUUCAGCUGAAGAAGGUGAGGUCCGUCAACAGUCUGAUGGUCGCGUCCUUGACCUACAAGGACAAGGUGUACCUGAACGUGACCACCGACAACACCAGCCUGGACGACUUCCAUGUGAACGGCGGUGAGCUGAUCUUGAUUCACCAGAACCCUGGUGAGUUCUGUGUCCUGUGA
Turning to B3, the translation level result in data set [1] is recorded as “relatively lower translation level”.

B4: FADD: mRNA encoding FADD (FAS-associated death domain protein) (nucleic acid)
chain: AUGGACCCGUUCCUGGUGCUGCUGCACUCGGUGUCGUCCAGCCUGUCGAGCAGCGAGCUGACCGAGCUCAAGUUCCUAUGCCUCGGGCGCGUGGGCAAGCGCAAGCUGGAGCGCGUGCAGAGCGGCCUAGACCUCUUCUCCAUGCUGCUGGAGCAGAACGACCUGGAGCCCGGGCACACCGAGCUCCUGCGCGAGCUGCUCGCCUCCCUGCGGCGCCACGACCUGCUGCGGCGCGUCGACGACUUCGAGGCGGGGGCGGCGGCCGGGGCCGCGCCUGGGGAAGAAGACCUGUGUGCAGCAUUUAACGUCAUAUGUGAUAAUGUGGGGAAAGAUUGGAGAAGGCUGGCUCGUCAGCUCAAAGUCUCAGACACCAAGAUCGACAGCAUCGAGGACAGAUACCCCCGCAACCUGACAGAGCGUGUGCGGGAGUCACUGAGAAUCUGGAAGAACACAGAGAAGGAGAACGCAACAGUGGCCCACCUGGUGGGGGCUCUCAGGUCCUGCCAGAUGAACCUGGUGGCUGACCUGGUACAAGAGGUUCAGCAGGCCCGUGACCUCCAGAACAGGAGUGGGGCCAUGUCCCCGAUGUCAUGGAACUCAGACGCAUCUACCUCCGAAGCGUCCUGA
For B4, in the data set with CT26 tumor cells, the “anti-tumor effect of the added agent alone” value is listed as “did not have observable anti-tumor effects”; the “effect of adding the agent on the efficacy of the IL-12/OX40L combination” value is “further increased the efficacy of the IL-12/OX12L combination; also recorded: greater than by GSDMD and TNFR”.
